Columns and labels:
[1] = promoter strength, Registry of Standard Biological Parts (Anderson collection); cited from earlier work
E. coli genome [2] = experiment: Off-target mutagenesis, fosfomycin resistance assay; type: cell-based; details: 24 h growth
Description: (§1) Mutation assay: To test mutagenesis rates, the control and mutagenic strains (Strep^R) carrying reporter plasmids (Amp^R) were streaked out on LB agar with 100 μg/mL streptomycin and 100 μg/mL ampicillin and grown at 37° C. for 24 hours. Then single colonies were picked in triplicate for each sample and grown in 5 mL LB with 100 μg/mL streptomycin,100 μg/mL ampicillin and 25 mM arabinose (with 10 μg/mL chloramphenicol if the strain contains MP6) at 37° C., 250 r.p.m. for 24 hours. Then 1 mL aliquots of each overnight were pelleted at 6000×g for 3 minutes and resuspended in 1 mL LB to remove arabinose. Then 50 μL of each resuspension was plated on LB agar plates with 50 μg/mL tetrazolium chloride and 200 μg/mL kanamycin, 20 μg/mL tetracycline, 100 μg/mL fosfomycin or 100 μg/mL rifampicin unless otherwise stated. 50 μL of a 100,000-fold dilution of each culture was also plated on LB agar with 100 μg/mL streptomycin, 100 μg/mL ampicillin and 50 μg/mL tetrazolium chloride. After incubating the plates at 37° C. for 48 hours, they were imaged by inverting the plates onto transparencies and scanning on a document scanner at a resolution of 400 d.p.i. The colonies were then counted using the software OpenCFU (3.9.0) (Geissmann Q., PLoS One. 2013; 8(2): e54072), with minimum colony radius set to 3, the maximum colony radius set to 50 and the regular threshold set to 4.
(§2) Mutation Assay: To assess mutagenesis rates, the control (Δung, rApo1, drApo1, and drApo1−T7; TABLE 8) and mutagenic strains (MutaT7 and MP6; TABLE 8) (Strep^R) carrying reporter plasmids (AmpR) were streaked on LB agar with 100 μg/mL streptomycin and 100 μg/mL ampicillin and grown at 37° C. for 24 h in order to obtain clones. Single colonies were picked in triplicate for each sample and used to inoculate 5 mL LB with 100 μg/mL streptomycin, 100 μg/mL ampicillin, and 25 mM arabinose (with 10 μg/mL chloramphenicol for the MP6 strain, TABLE 8), then shaken at 250 r.p.m. and 37° C. for 24 h to accumulate mutations during growth. 1 mL aliquots of each culture were pelleted at 6000×g for 3 min and resuspended in 1 mL LB to remove arabinose. Each resuspension was plated on LB agar plates with 50 μg/mL tetrazolium chloride (a metabolic contrast dye for visualizing colonies) and the antibiotics indicated below to analyze mutation rates and viability: • 50 μL of a 100,000-fold dilution of each resuspension was plated on LB agar with 100 μg/mL streptomycin, 100 μg/mL ampicillin, and 50 μg/mL tetrazolium chloride. For samples from the MP6 strain, owing to lower growth of that strain, 50 μL of a 10,000-fold dilution of each resuspension was plated to obtain a more accurate count. The colony counts from these plates were used to calculate the cell viability (i.e., the number of live, ampicillin resistant cells) in CFU/mL for each sample (FIG. 13D). • 50 μL of each resuspension was plated on LB agar plates with 200 μg/mL kanamycin and 50 μg/mL tetrazolium chloride. The colony counts from these plates were used to calculate the number of kanamycin resistant mutants in CFU/mL for each sample (FIG. 13E). The number of kanamycin resistant mutants in CFU/mL was divided by the number of live ampicillin resistant cells in CFU/mL for each sample to obtain the kanamycin resistant mutation frequency (FIG. 13B). • 50 μL of each resuspension was plated on LB agar plates with 20 μg/mL tetracycline and 50 μg/mL tetrazolium chloride. The colony counts from these plates were used to calculate the number of tetracycline resistant mutants in CFU/mL for each sample. The number of tetracycline resistant mutants in CFU/mL was divided by the number of live ampicillin resistant cells in CFU/mL for each sample to obtain the tetracycline resistant mutation frequency (FIG. 13B). • 50 μL of each resuspension was plated on LB agar plates with 100 μg/mL rifampicin and 50 μg/mL tetrazolium chloride. […]

[3] = test system: Tet^R gene with inactive ACG start codon downstream of Kan^R on reporter plasmid; experiment: Start codon reversion mutation assay, tetracycline resistance (downstream of target); type: cell-based, E. coli; details: 24 h growth
Description: as §1, §2

E. coli genome [4] = experiment: Off-target mutagenesis, rifampicin resistance assay; type: cell-based; details: 24 h growth
Description: as §1, §2

E. coli = experiment: Cell viability (live ampicillin resistant cells) in mutation assay; type: cell-based; details: 24 h growth
Description: as §1
Mutation Assay: To assess mutagenesis rates, the control (Δung, rApo1, drApo1, and drApo1−T7; TABLE 8) and mutagenic strains (MutaT7 and MP6; TABLE 8) (Strep^R) carrying reporter plasmids (AmpR) were streaked on LB agar with 100 μg/mL streptomycin and 100 μg/mL ampicillin and grown at 37° C. for 24 h in order to obtain clones. Single colonies were picked in triplicate for each sample and used to inoculate 5 mL LB with 100 μg/mL streptomycin, 100 μg/mL ampicillin, and 25 mM arabinose (with 10 μg/mL chloramphenicol for the MP6 strain, TABLE 8), then shaken at 250 r.p.m. and 37° C. for 24 h to accumulate mutations during growth. […]

[5] = test system: Kan^R gene with ACG in place of ATG start codon on reporter plasmid; experiment: Start codon reversion mutation assay, kanamycin resistance (on-target); type: cell-based, E. coli; details: 24 h growth
Description: as §1, §2

[6] = reporter plasmid No T7 promoter + filler DNA
[7] = reporter plasmid T7 promoter + filler DNA
[8] = reporter plasmid T7 promoter + terminator array

## BBa_J23100: Anderson collection promoter, SEQ ID NO: 2 (DNA TTGACGGCTAGCTCAGTCCTAGGTACAGTGCTAGC; listed as DNA, chemistry not fully specified)
[1]
  Measured Strength: 1

## BBa_J23101: Anderson collection promoter, SEQ ID NO: 3 (DNA TTTACAGCTAGCTCAGTCCTAGGTATTATGCTAGC; listed as DNA, chemistry not fully specified)
[1]
  Measured Strength: 0.70

## BBa_J23102: Anderson collection promoter, SEQ ID NO: 4 (DNA TTGACAGCTAGCTCAGTCCTAGGTACTGTGCTAGC; listed as DNA, chemistry not fully specified)
[1]
  Measured Strength: 0.86

## BBa_J23103: Anderson collection promoter, SEQ ID NO: 5 (DNA CTGATAGCTAGCTCAGTCCTAGGGATTATGCTAGC; listed as DNA, chemistry not fully specified)
[1]
  Measured Strength: 0.01

## BBa_J23104: Anderson collection promoter, SEQ ID NO: 6 (DNA TTGACAGCTAGCTCAGTCCTAGGTATTGTGCTAGC; listed as DNA, chemistry not fully specified)
[1]
  Measured Strength: 0.72

## BBa_J23105: Anderson collection promoter, SEQ ID NO: 7 (DNA TTTACGGCTAGCTCAGTCCTAGGTACTATGCTAGC; listed as DNA, chemistry not fully specified)
[1]
  Measured Strength: 0.24

## BBa_J23106: Anderson collection promoter, SEQ ID NO: 8 (DNA TTTACGGCTAGCTCAGTCCTAGGTATAGTGCTAGC; listed as DNA, chemistry not fully specified)
[1]
  Measured Strength: 0.47

## BBa_J23107: Anderson collection promoter, SEQ ID NO: 9 (DNA TTTACGGCTAGCTCAGCCCTAGGTATTATGCTAGC; listed as DNA, chemistry not fully specified)
[1]
  Measured Strength: 0.36

## BBa_J23108: Anderson collection promoter, SEQ ID NO: 10 (DNA CTGACAGCTAGCTCAGTCCTAGGTATAATGCTAGC; listed as DNA, chemistry not fully specified)
[1]
  Measured Strength: 0.51

## BBa_J23109: Anderson collection promoter, SEQ ID NO: 11 (DNA TTTACAGCTAGCTCAGTCCTAGGGACTGTGCTAGC; listed as DNA, chemistry not fully specified)
[1]
  Measured Strength: 0.04

## BBa_J23110: Anderson collection promoter, SEQ ID NO: 12 (DNA TTTACGGCTAGCTCAGTCCTAGGTACAATGCTAGC; listed as DNA, chemistry not fully specified)
[1]
  Measured Strength: 0.33

## BBa_J23111: Anderson collection promoter, SEQ ID NO: 13 (DNA TTGACGGCTAGCTCAGTCCTAGGTATAGTGCTAGC; listed as DNA, chemistry not fully specified)
[1]
  Measured Strength: 0.58

## BBa_J23112: Anderson collection promoter, SEQ ID NO: 14 (DNA CTGATAGCTAGCTCAGTCCTAGGGATTATGCTAGC; listed as DNA, chemistry not fully specified)
[1]
  Measured Strength: 0.00

## BBa_J23113: Anderson collection promoter, SEQ ID NO: 15 (DNA CTGATGGCTAGCTCAGTCCTAGGGATTATGCTAGC; listed as DNA, chemistry not fully specified)
[1]
  Measured Strength: 0.01

## BBa_J23114: Anderson collection promoter, SEQ ID NO: 16 (DNA TTTATGGCTAGCTCAGTCCTAGGTACAATGCTAGC; listed as DNA, chemistry not fully specified)
[1]
  Measured Strength: 0.10

## BBa_J23115: Anderson collection promoter, SEQ ID NO: 17 (DNA TTTATAGCTAGCTCAGCCCTTGGTACAATGCTAGC; listed as DNA, chemistry not fully specified)
[1]
  Measured Strength: 0.15

## BBa_J23116: Anderson collection promoter, SEQ ID NO: 18 (DNA TTGACAGCTAGCTCAGTCCTAGGGACTATGCTAGC; listed as DNA, chemistry not fully specified)
[1]
  Measured Strength: 0.16

## BBa_J23117: Anderson collection promoter, SEQ ID NO: 19 (DNA TTGACAGCTAGCTCAGTCCTAGGGATTGTGCTAGC; listed as DNA, chemistry not fully specified)
[1]
  Measured Strength: 0.06

## BBa_J23118: Anderson collection promoter, SEQ ID NO: 20 (DNA TTGACGGCTAGCTCAGTCCTAGGTATTGTGCTAGC; listed as DNA, chemistry not fully specified)
[1]
  Measured Strength: 0.56

B1: drApoI (protein, UniProt P38483 1-229, looked up, variant E63Q)
C->U-editing enzyme APOBEC-1: MSSETGPVAVDPTLRRRIEPHEFEVFFDPRELRKETCLLYEINWGGRHSIWRHTSQNTNKHVQVNFIEKFTTERYFCPNTRCSITWFLSWSPCGECSRAITEFLSRYPHVTLFIYIARLYHHADPRNRQGLRDLISSGVTIQIMTEQESGYCWRNFVNYSPSNEAHWPRYPHLWVRLYVLELYCIILGLPPCLNILRRKQPQLTFFTIALQSCHYQRLPPHILWATGLK
E. coli genome [2]; [6]
  Fos resistance Frequency: 2.0E−6
  Fos resistant CFU/mL: 3.3E+3 CFU/mL
E. coli genome [2]; [7]
  Fos resistance Frequency: 2.7E−6
  Fos resistant CFU/mL: 3.5E+3 CFU/mL
E. coli genome [2]; [8]
  Fos resistance Frequency: 1.9E−6
  Fos resistant CFU/mL: 3.4E+3 CFU/mL
[3]; [6]
  Tet resistance Frequency: 1.1E−7
  Tet resistant CFU/mL: 1.8E+2 CFU/mL
[3]; [7]
  Tet resistance Frequency: 4.6E−7
  Tet resistant CFU/mL: 6.3E+2 CFU/mL
[3]; [8]
  Tet resistance Frequency: 2.1E−7
  Tet resistant CFU/mL: 3.7E+2 CFU/mL
E. coli genome [4]; [6]
  Rif resistance Frequency: 4.5E−7
  Rif resistant CFU/mL: 7.6E+2 CFU/mL
E. coli genome [4]; [7]
  Rif resistance Frequency: 3.0E−7
  Rif resistant CFU/mL: 4.0E+2 CFU/mL
E. coli genome [4]; [8]
  Rif resistance Frequency: 3.4E−7
  Rif resistant CFU/mL: 5.9E+2 CFU/mL
E. coli; [6]
  Amp resistant CFU/mL (cell viability): 1.6E+9 CFU/mL
E. coli; [7]
  Amp resistant CFU/mL (cell viability): 1.3E+9 CFU/mL
E. coli; [8]
  Amp resistant CFU/mL (cell viability): 1.8E+9 CFU/mL
[5]; [6]
  Kan resistance Frequency: 3.8E−8
  Kan resistant CFU/mL: 6.0E+1 CFU/mL
[5]; [7]
  Kan resistance Frequency: 5.2E−7
  Kan resistant CFU/mL: 6.5E+2 CFU/mL
[5]; [8]
  Kan resistance Frequency: 6.6E−7
  Kan resistant CFU/mL: 1.2E+3 CFU/mL
